Test results as given in patent US20130309230A1 (published 2013).

Legend:
AA, - MMP-9 = assay: SPR; - MMP-9 (uncleaved, masked AA)
AA, + MMP-9 = assay: SPR; + MMP-9 (activated AA)

B1: VEGF (ligand)
chain: APMAEGGGQNHHEVVKFMDVYQRSYCHPIETLVDIFQEYPDEIEYIFKPSCVPLMRCGGCCNDEGLECVPTEESNITMQIMRIKPHQGQHIGEMSFLQHNKCECRPKKDRARQENPCGPCSERRKHLFVQDPQTCKCSCKNTDSRCKARQLELNERTCRCDKPRR
AA, - MMP-9
  Kd: > 200000 pM
AA, + MMP-9
  Kd: 350 pM
